How the values were obtained:
Test in all cases: IP/MS, LZTR1 wild type-FLAG, U87
LONP2 = target: T1, LONP2 (human, UniProt Q86WA8 2-852, limits assumed)
T1 sequence (looked up): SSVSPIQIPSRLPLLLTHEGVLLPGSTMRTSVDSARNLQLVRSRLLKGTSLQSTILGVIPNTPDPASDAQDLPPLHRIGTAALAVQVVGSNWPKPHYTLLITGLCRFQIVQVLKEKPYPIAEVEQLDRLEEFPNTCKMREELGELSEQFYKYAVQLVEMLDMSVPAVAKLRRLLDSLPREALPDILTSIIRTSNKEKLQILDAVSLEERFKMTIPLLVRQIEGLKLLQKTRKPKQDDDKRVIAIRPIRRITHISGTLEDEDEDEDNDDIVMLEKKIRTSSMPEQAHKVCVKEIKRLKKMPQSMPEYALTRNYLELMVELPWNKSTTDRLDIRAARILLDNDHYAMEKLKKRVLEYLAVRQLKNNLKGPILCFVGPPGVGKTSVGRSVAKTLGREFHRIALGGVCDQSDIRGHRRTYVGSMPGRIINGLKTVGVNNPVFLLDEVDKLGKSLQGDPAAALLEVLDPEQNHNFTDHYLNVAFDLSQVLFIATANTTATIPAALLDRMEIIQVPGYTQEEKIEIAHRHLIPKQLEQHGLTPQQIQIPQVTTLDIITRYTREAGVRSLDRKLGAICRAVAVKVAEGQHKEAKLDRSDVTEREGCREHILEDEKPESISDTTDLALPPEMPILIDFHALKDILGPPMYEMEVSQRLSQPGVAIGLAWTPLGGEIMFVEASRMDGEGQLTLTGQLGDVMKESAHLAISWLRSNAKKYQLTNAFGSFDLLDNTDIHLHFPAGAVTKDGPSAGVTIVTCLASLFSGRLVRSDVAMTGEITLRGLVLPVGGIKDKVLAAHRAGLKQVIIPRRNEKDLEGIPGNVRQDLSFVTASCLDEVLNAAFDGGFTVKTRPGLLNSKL
Summary of the method: (§1)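 Gel slices were reduced with 5 mM DTT, alkylated with 11 mM IAA and digested overnight at 37° C. with trypsin. Peptides were analysed on an Orbitrap Fusion Tribrid by LC-MS/MS.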

FHOD1 = target: T2, FHOD1 (human, UniProt Q9Y613 2-1164)
T2 sequence (looked up): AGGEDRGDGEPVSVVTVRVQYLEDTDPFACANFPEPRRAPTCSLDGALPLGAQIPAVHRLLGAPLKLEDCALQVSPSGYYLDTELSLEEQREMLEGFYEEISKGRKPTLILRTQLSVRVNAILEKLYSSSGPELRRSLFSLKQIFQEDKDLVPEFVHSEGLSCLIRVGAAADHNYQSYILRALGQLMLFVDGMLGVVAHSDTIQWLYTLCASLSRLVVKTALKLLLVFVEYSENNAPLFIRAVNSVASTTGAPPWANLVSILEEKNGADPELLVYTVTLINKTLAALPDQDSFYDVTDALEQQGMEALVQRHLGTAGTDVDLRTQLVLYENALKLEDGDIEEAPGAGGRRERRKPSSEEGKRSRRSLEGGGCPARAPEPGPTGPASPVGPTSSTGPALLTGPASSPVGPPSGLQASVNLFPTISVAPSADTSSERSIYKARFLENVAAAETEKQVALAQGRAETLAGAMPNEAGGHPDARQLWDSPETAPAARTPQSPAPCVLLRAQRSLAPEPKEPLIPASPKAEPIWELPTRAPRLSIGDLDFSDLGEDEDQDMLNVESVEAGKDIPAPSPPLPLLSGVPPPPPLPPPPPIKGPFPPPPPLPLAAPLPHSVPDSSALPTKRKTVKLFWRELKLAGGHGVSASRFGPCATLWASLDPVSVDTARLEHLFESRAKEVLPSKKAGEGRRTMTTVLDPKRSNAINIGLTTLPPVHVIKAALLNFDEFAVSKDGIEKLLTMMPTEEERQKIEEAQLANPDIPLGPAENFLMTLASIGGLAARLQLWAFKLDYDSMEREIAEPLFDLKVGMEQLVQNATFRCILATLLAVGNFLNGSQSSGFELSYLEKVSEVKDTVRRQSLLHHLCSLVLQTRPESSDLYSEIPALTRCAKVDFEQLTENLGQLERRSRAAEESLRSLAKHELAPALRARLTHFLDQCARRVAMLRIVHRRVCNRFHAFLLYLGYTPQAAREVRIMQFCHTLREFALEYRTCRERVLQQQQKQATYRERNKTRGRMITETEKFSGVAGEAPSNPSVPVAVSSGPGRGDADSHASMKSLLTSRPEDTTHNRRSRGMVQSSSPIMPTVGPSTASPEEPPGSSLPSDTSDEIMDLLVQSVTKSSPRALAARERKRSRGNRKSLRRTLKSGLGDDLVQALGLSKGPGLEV
Summary of the method: as §1

ARHGEF28 = ARHGEF28 (human, UniProt Q8N1W1 1-1705, limits assumed)
Summary of the method: as §1

Measured: binding result

Chain of ARHGEF28 (Q8N1W1 whole entry): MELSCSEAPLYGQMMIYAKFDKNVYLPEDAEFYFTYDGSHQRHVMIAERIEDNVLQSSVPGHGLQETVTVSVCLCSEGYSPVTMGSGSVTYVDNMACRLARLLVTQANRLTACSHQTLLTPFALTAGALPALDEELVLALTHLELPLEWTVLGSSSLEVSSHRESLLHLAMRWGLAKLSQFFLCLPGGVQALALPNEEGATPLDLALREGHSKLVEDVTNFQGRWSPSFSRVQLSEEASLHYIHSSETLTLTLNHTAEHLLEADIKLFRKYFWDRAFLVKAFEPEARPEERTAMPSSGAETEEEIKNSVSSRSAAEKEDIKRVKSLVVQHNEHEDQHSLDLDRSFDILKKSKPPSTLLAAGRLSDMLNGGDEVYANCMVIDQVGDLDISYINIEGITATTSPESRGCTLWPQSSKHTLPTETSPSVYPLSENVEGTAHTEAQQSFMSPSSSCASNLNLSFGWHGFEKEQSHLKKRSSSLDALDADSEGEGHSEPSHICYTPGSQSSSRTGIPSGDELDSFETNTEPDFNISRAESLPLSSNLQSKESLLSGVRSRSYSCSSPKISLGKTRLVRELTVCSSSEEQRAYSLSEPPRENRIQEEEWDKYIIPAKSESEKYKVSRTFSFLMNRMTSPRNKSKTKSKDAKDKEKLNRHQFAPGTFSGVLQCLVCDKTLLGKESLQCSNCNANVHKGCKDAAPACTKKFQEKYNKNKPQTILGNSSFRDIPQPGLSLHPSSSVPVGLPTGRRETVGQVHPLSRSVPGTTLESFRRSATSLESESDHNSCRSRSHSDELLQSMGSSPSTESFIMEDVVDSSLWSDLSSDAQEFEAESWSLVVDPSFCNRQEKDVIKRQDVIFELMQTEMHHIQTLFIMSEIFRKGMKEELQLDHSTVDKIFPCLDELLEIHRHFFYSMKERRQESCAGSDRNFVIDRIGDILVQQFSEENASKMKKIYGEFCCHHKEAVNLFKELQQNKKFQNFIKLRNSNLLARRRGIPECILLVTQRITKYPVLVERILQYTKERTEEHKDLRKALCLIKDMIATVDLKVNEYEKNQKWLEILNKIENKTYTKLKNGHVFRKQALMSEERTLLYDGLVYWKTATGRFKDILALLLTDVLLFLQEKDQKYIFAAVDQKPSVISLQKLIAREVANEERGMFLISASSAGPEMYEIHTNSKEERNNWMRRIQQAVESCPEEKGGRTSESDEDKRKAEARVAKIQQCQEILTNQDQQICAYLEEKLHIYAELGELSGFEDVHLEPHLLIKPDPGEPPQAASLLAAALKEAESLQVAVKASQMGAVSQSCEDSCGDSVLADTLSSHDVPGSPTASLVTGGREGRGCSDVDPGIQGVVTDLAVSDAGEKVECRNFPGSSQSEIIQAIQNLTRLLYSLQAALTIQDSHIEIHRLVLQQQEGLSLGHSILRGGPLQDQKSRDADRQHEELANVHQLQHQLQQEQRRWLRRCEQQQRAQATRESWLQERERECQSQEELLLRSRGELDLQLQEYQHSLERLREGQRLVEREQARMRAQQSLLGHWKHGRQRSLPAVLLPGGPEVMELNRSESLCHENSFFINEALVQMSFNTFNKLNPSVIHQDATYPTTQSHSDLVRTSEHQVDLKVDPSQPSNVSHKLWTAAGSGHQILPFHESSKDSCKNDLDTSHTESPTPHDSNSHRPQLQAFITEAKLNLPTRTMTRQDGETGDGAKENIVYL

B1: LZTR1-FLAG (other, human, UniProt Q8N653 1-840, looked up)
chain: MAGPGSTGGQIGAAALAGGARSKVAPSVDFDHSCSDSVEYLTLNFGPFETVHRWRRLPPCDEFVGARRSKHTVVAYKDAIYVFGGDNGKTMLNDLLRFDVKDCSWCRAFTTGTPPAPRYHHSAVVYGSSMFVFGGYTGDIYSNSNLKNKNDLFEYKFATGQWTEWKIEGRLPVARSAHGATVYSDKLWIFAGYDGNARLNDMWTIGLQDRELTCWEEVAQSGEIPPSCCNFPVAVCRDKMFVFSGQSGAKITNNLFQFEFKDKTWTRIPTEHLLRGSPPPPQRRYGHTMVAFDRHLYVFGGAADNTLPNELHCYDVDFQTWEVVQPSSDSEVGGAEVPERACASEEVPTLTYEERVGFKKSRDVFGLDFGTTSAKQPTQPASELPSGRLFHAAAVISDAMYIFGGTVDNNIRSGEMYRFQFSCYPKCTLHEDYGRLWESRQFCDVEFVLGEKEECVQGHVAIVTARSRWLRRKITQARERLAQKLEQEAAPVPREAPGVAAGGARPPLLHVAIREAEARPFEVLMQFLYTDKIKYPRKGHVEDVLLIMDVYKLALSFQLCRLEQLCRQYIEASVDLQNVLVVCESAARLQLSQLKEHCLNFVVKESHFNQVIMMKEFERLSSPLIVEIVRRKQQPPPRTPLDQPVDIGTSLIQDMKAYLEGAGAEFCDITLLLDGHPRPAHKAILAARSSYFEAMFRSFMPEDGQVNISIGEMVPSRQAFESMLRYIYYGEVNMPPEDSLYLFAAPYYYGFYNNRLQAYCKQNLEMNVTVQNVLQILEAADKTQALDMKRHCLHIIVHQFTKVSKLPTLRSLSQQLLLDIIDSLASHISDKQCAELGADI
notes: Expressed in HEK 293T, HeLa or U87 cells; used as cell lysate; also called LZTR1 wild type-FLAG; LZTR1 WT; not shown: FLAG tag at the C-terminus
binds: all assays above

Reference: patent US20250262210A1 (TRUSTEES OF COLUMBIA UNIVERSITY IN THE CITY OF NEW YORK, published 2025)
